The results in this text go back to patent US20240029824A1 (University of Washington, published 2024).

First the molecules themselves.
B7: DHT05 chain B (SEQ ID NO: 88) (designed binder)
chain: SEVEKRLLEIHRRVAESHRILVEVHEALIEALRGNSEEAKEKLKELVKELEKIIKEEEELLKELEKIVEEAS

Experiment [1] has as its target T1, DHT05_3arm_A62/B71/C62 chain C.
T1 chain: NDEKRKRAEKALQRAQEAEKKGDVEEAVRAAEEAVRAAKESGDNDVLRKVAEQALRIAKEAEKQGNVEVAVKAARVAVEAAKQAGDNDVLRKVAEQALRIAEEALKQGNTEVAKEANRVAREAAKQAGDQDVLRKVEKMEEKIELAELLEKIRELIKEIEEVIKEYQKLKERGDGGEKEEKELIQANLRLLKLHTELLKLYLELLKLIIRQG
As to the kind of experiment: SEC and SAXS; chains of one ABC heterotrimer.

Experiment [2] deals with T2, DHT05_3arm_A62/B71/C62 chain B.
T2 chain: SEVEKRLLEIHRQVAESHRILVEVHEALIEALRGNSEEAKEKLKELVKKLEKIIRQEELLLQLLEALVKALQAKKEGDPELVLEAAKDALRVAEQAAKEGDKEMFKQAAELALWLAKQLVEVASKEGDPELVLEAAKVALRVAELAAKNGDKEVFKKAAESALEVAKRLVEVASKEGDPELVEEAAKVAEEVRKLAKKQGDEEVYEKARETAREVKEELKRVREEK
As to the kind of experiment: SEC and SAXS; chains of one ABC heterotrimer.

Experiment [3] has as its target T3, DHT05 chain C (SEQ ID NO: 95).
T3 chain: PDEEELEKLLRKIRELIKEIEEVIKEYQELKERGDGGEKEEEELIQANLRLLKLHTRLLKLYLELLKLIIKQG
As to the kind of experiment: SEC and SAXS; chains of one ABC heterotrimer.

Another experiment concerns the target T4, DHT01 chain C.
T4 chain: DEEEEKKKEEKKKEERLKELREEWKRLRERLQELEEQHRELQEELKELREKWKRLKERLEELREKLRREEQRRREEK
As to the kind of experiment: co-expression, IMAC and Strep-Tactin pull-down, SEC, native MS; chains of one ABC heterotrimer. An excerpt:
(§1) We obtained genes encoding 20 coiled coil designed heterotrimers (DHTs) in a tricistronic E. coli expression vector with one chain having a 6×His-tag and a second chain having Strep-tag II, expressed the proteins, and purified by immobilized metal affinity chromatography (IMAC) and Strep-Tactin pull-down. All designs were soluble and for 6 designs, all three components were observed by liquid chromatography-mass spectrometry (LC-MS) after both pull-down approaches. Of these, 5 eluted as monodisperse peaks by SEC, but only 1 design (DHT01) was an exclusive ABC heterotrimer by native mass spectrometry (nMS) and had good agreement with the design model via small angle X-ray scattering (SAXS) (FIG. 2d, Table 7).
(§2) Samples were analyzed by online buffer exchange native mass spectrometry (nMS) to evaluate sample purity and accurately determine oligomeric states⁴². Multiple instruments were used as the analyses were carried out over the duration of the protein design process. The mass spectrometers used for detection were a Q Exactive™ UHMR modified with a surface-induced dissociation device and an Exactive™ Plus EMR modified with a selection quadrupole and a surface-induced dissociation device (Thermo Fisher Scientific)⁴³. The liquid chromatography systems used for the buffer exchange include a Vanquish™ Duo UHPLC and a Dionex™ Ultimate 3000 HPLC (Thermo Fisher Scientific). A heated electrospray ionization source (HESI-II, Thermo Fisher Scientific) with a spray voltage of ˜4 kV was used for ionization. Protein samples stored in Tris buffer were injected (0.1-2 ug) onto the LC system and exchanged at a flow rate of 100-200 uL*min⁻¹ into 200 mM ammonium acetate (mobile phase) prior to ionization. Buffer exchange columns used include self-packed columns with P6 polyacrylamide gel (Bio-Rad Laboratories) and prototype buffer exchange columns provided by Thermo Fisher Scientific (Sunnyvale, CA). Instrument parameters were optimized to allow for ion transmission while minimizing unintentional ion activation. […]

Another experiment concerns the target T5, DHT01 chain B.
T5 chain: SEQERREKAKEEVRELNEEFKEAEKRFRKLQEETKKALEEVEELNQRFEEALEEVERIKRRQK
The description is as above.
Description: as §1, §2

Experiment [4] concerns the target B7. As to the kind of experiment: SEC and SAXS; chains of one ABC heterotrimer.
A further experiment deals with T6, DHT01-4arm-01 chain C.
T6 construct: also called DHT01-4arm-02 chain C; C2-DHT01-01 chain B
T6 chain: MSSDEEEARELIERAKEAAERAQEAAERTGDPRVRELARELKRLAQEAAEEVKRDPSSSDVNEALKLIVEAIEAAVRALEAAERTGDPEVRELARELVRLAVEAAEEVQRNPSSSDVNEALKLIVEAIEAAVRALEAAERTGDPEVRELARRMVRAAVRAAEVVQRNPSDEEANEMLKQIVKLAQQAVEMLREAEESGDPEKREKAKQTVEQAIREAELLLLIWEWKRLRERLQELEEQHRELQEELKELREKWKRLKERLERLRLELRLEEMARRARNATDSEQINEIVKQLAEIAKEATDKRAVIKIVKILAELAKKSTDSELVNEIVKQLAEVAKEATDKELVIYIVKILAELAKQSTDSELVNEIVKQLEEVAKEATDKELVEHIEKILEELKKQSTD
As to the kind of experiment: SEC and SDS-PAGE; chains of one ABC heterotrimer.

Experiment [5] has as its target T7, DHT03_3arm_A21/B21/C59 chain C.
T7 chain: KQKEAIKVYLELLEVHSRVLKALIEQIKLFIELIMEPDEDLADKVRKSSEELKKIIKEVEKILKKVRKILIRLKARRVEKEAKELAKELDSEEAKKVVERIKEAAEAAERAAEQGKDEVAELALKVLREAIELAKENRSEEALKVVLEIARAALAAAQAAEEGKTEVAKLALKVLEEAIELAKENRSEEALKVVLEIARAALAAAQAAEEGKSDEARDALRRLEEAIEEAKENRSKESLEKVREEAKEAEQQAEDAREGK
As to the kind of experiment: individually purified chains mixed 1:1:1, heat annealed, SEC. An excerpt: (§3) To test this idea, an equimolar amount of individually purified A, B, and C of DHT03_2arm_A21/B21/C were mixed together and run through an annealing protocol (see Methods) to allow these interfaces to reassemble in the presence of all components. A monodisperse SEC peak was observed belonging to the ABC heterotrimer state as confirmed by overlap with its SEC co-expressed tricistronic version (FIG. 3d). To explore the use of this approach for building, four different repeat protein fusions to chain C were annealed in the same manner and all four 3-arm heterotrimers were successfully reconstituted. […] The successful reconstitution of these ABC assemblies, following the independent expression and purification of each chain and explicit mixing at a 1:1:1 ratio, enables their use in conjunction with other de novo proteins to mediate the specific assembly of multi-component assemblies. Independent expression also has considerable advantages over tricistronic expression from a gene synthesis perspective as DNA becomes much more difficult and expensive to synthesize with increasing construct size.
(§4) To test whether the DHT03 components could properly assemble in the presence of other helical hairpin containing chains, as would be the case for more complex assemblies, we chose DHD131, a designed helical hairpin unit heterodimer containing buried hydrogen bond networks¹². […] We evaluated simultaneous reconstitution of DHD131 and DHT03_3arm_A21/B21/C82, since the size difference between the two constructs (if correctly assembled) should be detected by SEC. We separately expressed and individually purified the two chains of the heterodimer and the three chains of the heterotrimer, mixed them at a 1:1:1:1:1 ratio, and carried out annealing and SEC as described above.

Experiment [6] concerns the target T8, DHT03_3arm_A21/B21/C82 chain C.
T8 construct: also called chain C DHR82 fusion; chain C of C3-DHT03-01-DHR82 and C4-DHT03-01-DHR82
T8 chain: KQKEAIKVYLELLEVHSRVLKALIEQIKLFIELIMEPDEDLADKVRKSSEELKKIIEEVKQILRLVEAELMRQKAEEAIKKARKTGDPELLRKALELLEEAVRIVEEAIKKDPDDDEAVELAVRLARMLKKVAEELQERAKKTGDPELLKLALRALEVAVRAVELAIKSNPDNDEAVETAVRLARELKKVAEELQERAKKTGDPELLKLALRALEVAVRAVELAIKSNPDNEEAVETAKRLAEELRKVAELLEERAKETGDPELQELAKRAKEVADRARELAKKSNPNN
The experiment is described as above.
Description: as §3, §4

Experiment [7] has as its target T9, DHT03_3arm_A21/B21/C53 chain C.
T9 chain: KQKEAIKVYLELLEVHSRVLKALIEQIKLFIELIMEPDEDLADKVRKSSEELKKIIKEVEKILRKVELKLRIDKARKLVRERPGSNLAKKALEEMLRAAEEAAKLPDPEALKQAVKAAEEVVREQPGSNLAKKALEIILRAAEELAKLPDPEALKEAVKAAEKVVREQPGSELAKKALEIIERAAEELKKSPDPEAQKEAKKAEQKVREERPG
The description is as above.
Description: as §3, §4

For experiment [8], the target named is T10, DHT03_3arm_A21/B21/C62 chain C.
T10 chain: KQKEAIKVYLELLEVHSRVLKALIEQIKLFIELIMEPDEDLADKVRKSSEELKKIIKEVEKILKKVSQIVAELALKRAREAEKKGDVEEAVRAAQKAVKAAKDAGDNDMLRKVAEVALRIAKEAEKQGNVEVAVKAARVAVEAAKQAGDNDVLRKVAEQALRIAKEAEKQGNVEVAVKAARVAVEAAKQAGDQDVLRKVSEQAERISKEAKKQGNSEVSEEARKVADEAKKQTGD
Described as above.
Description: as §3, §4

Experiment [9] concerns the target T11, DHT05 chain C (SEQ ID NO: 89).
T11 chain: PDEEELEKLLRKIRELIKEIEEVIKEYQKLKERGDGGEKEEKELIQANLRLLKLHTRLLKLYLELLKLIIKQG
As to the kind of experiment: SEC and SAXS; chains of one ABC heterotrimer.

Experiment [10] deals with T12, DHT05 chain C (SEQ ID NO: 98).
T12 chain: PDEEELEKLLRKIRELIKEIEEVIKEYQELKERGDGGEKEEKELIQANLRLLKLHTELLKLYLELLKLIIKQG
As to the kind of experiment: co-expression, SEC, SAXS; chains of one ABC heterotrimer.

B1: DHT05_3arm_A62/B71/C62 chain A (designed binder)
chain: NDEKRKRAEKALQRAQEAEKKGDVEEAVRAAQEAVRAAKESGDNDVLRKVAEQALRIAEEAEKQGNVEVAVKAARVAVEAAKQAGDNDVLRKVAEQALRIAEEAEKQGNVKVAADAVEVAVEAATQAGDQDVLRKASEQAKKVAKEAKKKGDHKVAVKATTLAVKAEFAAIQEEIKKLEEEAKKAEKGNGKEEIKELLLELSELLARSLQLLAQQIEAIAKLIRG
For B1, the binding result in experiment [1] and in experiment [2] was “binds” in each case.

B2: DHT05_2arm_A62/B14/C chain B (designed binder)
chain: SEVEKRLLEIHREVAESHRILVEVHEALIEALRGNSEEAKEKLKELVKKLEKIIKEEEELLKKLEKIVVQALAKAAKQATDSRQVNEIVKQLAEIAKEATDKRLVIEIVKILAELAKQSTDSELVNEIVKQLAEVAKEATDKELVIYIVKILAELAKQSTDSELVNEIVKQLEEVAKEATDKELVEHIEKILEELKKQSTD
As to B2, the binding result in experiment [3] is listed as “binds”.

B3: DHT01 chain A (designed binder)
chain: DEEEKLRESLEEQKKRVKEIEREHEEIREALKRLQESVKRQEEALRQLG
notes: one chain of the co-expressed design carried a 6xHis-tag and a second a Strep-tag II
In the case of B3, the binding result in the experiment with DHT01 chain C and with DHT01 chain B was “binds” each time.

B4: DHT05 chain A (designed binder)
chain: PEEKKEIKRTTEEVKEEFRKIQEEIKKLEEEAKKAEKGNGKEEIKELLLRLSELLARSLQLLAQQIEAIAKLIRG
Regarding B4, the binding result in [4] is recorded as “binds”.

B5: DHT01-4arm-02 chain B (designed binder)
chain: MSSDEEEARELIERAKEAAERAQEAAERTGDPRVRELARELKRLAQEAAEEVKRDPSSSDVNEALKLIVEAIEAAVRALEAAERTGDPEVRELARELVRLAVEAAEEVQRNPSSSDVNRALKLIVRAIEAAVQLLEHAEKSGDPEVRELARELVRRLVEAAEEVQRNPSDEQKNTQLRRLIAKAEVWLLNEEFKEAEKRFRKLQEETKKALEEVEELNQRFEEALEEVERIKRRQK
notes: Strep-tag II was added to the N-terminus of chain B of DHT01 arms; also called C2-DHT01-04 chain B
Regarding B5, the binding result with DHT01-4arm-01 chain C is given as “binds”.

B6: DHT03_3arm chain B (B21, SEQ ID NO: 73) (designed binder)
chain: SEKEKVEELAQRIREQLPDTELAREAQELADEARKSDDSEALKVVYLALRIVQQLPDTELAREALELAKEAVKSTDSEQLEVVRLALEIVQLAPDTRLARAALKLAKEAVKSTDQEELKKVKAILRVASEVLKLEEEAKKSQEEVERLKQEVEKASKAGLDHEGDSRIFKKIHDVVTKQIKVILRLIAVYAELVAIIG
notes: separately expressed with an N- or C-terminal 6xHis-tag
As for B6, the binding result in [5], in [6], in experiment [7] and in experiment [8] was “binds” throughout.

Take B7: in [9], the binding result is “binds”.

B8: DHT05_2arm_A62/B14(2)-LHD101B14/C chain B (designed binder)
chain: SETEKRLLEIHRRVAESHRILVEVHEALIEALRGNSEEAKEKLKELVKKLEKIIREEEKLTVELAAKVAKSADDSEKVNEIVKTLAEIAKEATDKEQVIRIVKILAELAKQSTDSELVNEIVKQLAEVAKEATDKELVIYIVDILLKLAEQADDDELVEEIRKQLEEVAKEATDKELVEIIKAVIVLLVIISVVARMGVTMEIHKSGREVKVVIKGLHESQQEQLLEAVLRAAEEAGVRVRIRFKGDTVTIVVRG
Turning to B8, the binding result in experiment [10] is “binds”.
